Assay results published in patent US20110251266A1.

Biological target: Human NGF (manufactured by R&D Systems) (human) (UniProt P01138)
Assay: cell-based or functional assay

Sequence of Human NGF (manufactured by R&D Systems) (human) (P01138 122-241 limits assumed): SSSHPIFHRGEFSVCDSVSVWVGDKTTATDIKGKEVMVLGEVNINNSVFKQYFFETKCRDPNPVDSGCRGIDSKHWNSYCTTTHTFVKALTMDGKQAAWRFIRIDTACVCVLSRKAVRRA

inhibitory activity (neurite outgrowth of PC-12 cells): > 50%
Substance: anti-NGF antibody (MAB2561, R&D Systems)
